In the supplement of paper PMC12042874:
± gives the uncertainty stated by the source.

Assay: amyloid nucleation score (Sup35N fusion, yeast selection) (log enrichment); library NNK2; higher = more nucleation; inactive = no reads after selection
Method in brief: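 Sup35N fusions to peptides of 20 random codons were expressed in psi-negative yeast, induced 24 hours with 100 μM copper sulfate, and grown 7 days at 30°C on medium lacking adenine and uracil. Input and output plasmid inserts were sequenced by Illumina. The nucleation score is the DiMSum log enrichment of output over input reads, centred on the mode score of non-aggregating sequences. Sequences with under 100 input reads were excluded.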

Row | Substance | amyloid nucleation score
1 | SHVCYSRNIH | 1.06 ± 0.26
2 | SIEYRDLKVCSLLYPVPQSG | 0.127 ± 0.46
3 | SIFITATCNVH | inactive
4 | SIFMDRCDWPSCSFGRIHEV | -0.521 ± 0.35
5 | SIFMYMYKSFFMGNYINGGM | 1.03 ± 0.27
6 | SIGKYLCYA | 2.38 ± 0.057
7 | SIKGIEVEYQGFRVCYSTVY | inactive
8 | SILLPPFSRAFDSPRIYITP | -0.82 ± 0.55
9 | SIRRLTR | -0.172 ± 0.49
10 | SIRSKGDILSCSRTTFC | 5.32 ± 0.071
11 | SISGMRWSSNHQVRSVLGAT | 1.17 ± 0.33
12 | SISLCGVGVRWESVTAGNVC | 0.51 ± 0.36
13 | SISRVMEMTSLSIHRFIRLC | -0.918 ± 1.1
14 | SISSVLCYWYKNHKNDIVSG | inactive
15 | SISVLYNLRLLCIYNIVVYR | inactive
16 | SIVFSLW | 1.62 ± 0.14
17 | SIVSTGFVRDLNRTRCYSGG | 0.158 ± 0.56
18 | SKCIRLPFFTLLLTNMFHVA | inactive
19 | SKIGHD | 0.545 ± 0.57
20 | SKLYDVCVHRVWRTWGFQEN | 0.027 ± 1
21 | SKMSYAYFLSLTMRCVADSM | 3.35 ± 0.06
22 | SKNYSSWPNPHMIQGLLGSM | -0.735 ± 0.3
23 | SKPGNIKWYSGFSKRQREAA | inactive
24 | SKRRSSLQPS | -0.151 ± 0.31
25 | SKRVDIKHSMRARDGLNRFW | -0.226 ± 1.1

Row | Substance | amyloid nucleation score
26 | SLCQSLDSWCYFLLWHWQWY | -0.637 ± 1.1
27 | SLCREVPFLWDFCL | 0.163 ± 0.63
28 | SLEGYKLDAQRRFKMVCEMV | -0.267 ± 0.33
29 | SLFGQLSCQASCRSSKDGGN | 6.375 ± 0.061
30 | SLFWNISPLKWSLLIGRCSV | -1.01 ± 0.78
31 | SLGRGPYDRNMIVFMMRELT | -0.682 ± 0.64
32 | SLHFCQTVFFYMQILSMLAC | inactive
33 | SLKITSYSVCVCCLCMNCNT | 7.6 ± 0.052
34 | SLKPSLLSDKNE | -1.39 ± 0.36
35 | SLKSYVSVQFELASSVWILE | 1.02 ± 0.24
36 | SLLGV | -1.3 ± 0.34
37 | SLLGVENNCVISFTTIFVVS | 5.11 ± 0.088
38 | SLLLKVMSR | -0.627 ± 0.79
39 | SLMLGVYHLFTCGTQTRCYS | -0.71 ± 1
40 | SLMVQWSTILAHIRHFMTA | 0.073 ± 0.63
41 | SLQSYGVYR | -0.359 ± 0.76
42 | SLSERLVILMTWCTFVVSAQ | 1.17 ± 0.29
43 | SLSLSSVERNGAANSAREFG | 0.647 ± 0.31
44 | SLSRFCMNLCRFSGGIQSVR | -1.34 ± 0.42
45 | SLTCIDWSELQYSNKSFGSM | -0.766 ± 0.79
46 | SLTSGRLYEIIIRIYHASFM | -1.46 ± 0.34
47 | SLTVTDIKLGHGRV | 6.2 ± 0.04
48 | SLVKVGDKRYMFVSTQGKSL | 0.055 ± 0.42
49 | SLVNATGRWINVVTNFRLNG | 7.565 ± 0.049
50 | SLVTSIVQG | -0.434 ± 0.64

Row | Substance | amyloid nucleation score
51 | SLVYL | 1.1 ± 0.13
52 | SMCDNQKLATDFVSAPRKYG | -0.73 ± 0.79
53 | SMCWNL | 0.17 ± 0.39
54 | SMDFNNDC | inactive
55 | SMGFSRHRFKG | 0.164 ± 0.8
56 | SMGLDFPWMSRDTGNFGTEI | -0.337 ± 0.4
57 | SMGVGTAVTCRTLVVLDGSC | 0.741 ± 0.37
58 | SMHEISVLLVDPVTLQYLG | 0.114 ± 0.63
59 | SMIIARILHITCFYRAHRRV | -0.721 ± 0.64
60 | SMIYIGIFS | 5.281 ± 0.031
61 | SMLDILS | -1.79 ± 0.62
62 | SMLFRIRSLNVCSFAGLMRQ | 2.37 ± 0.1
63 | SMSPGVFLISGWPMVENVVF | inactive
64 | SMVTFDYV | inactive
65 | SMYCTPFILCYNPHSNRVAH | 9.811 ± 0.037
66 | SMYLKKGRSVRGGMG | -0.66 ± 0.44
67 | SNALQDGRVQLGSFEHRIVR | 0.649 ± 0.5
68 | SNCGVLD | inactive
69 | SNCRTSFIQMVVYDCFGSFF | 4.74 ± 0.09
70 | SNCVCSRIVCCVRMGTGL | 9.908 ± 0.042
71 | SNGLMSACRWYLPAFLED | inactive
72 | SNGYGRLAQLVGGWRDTKGG | 0.398 ± 0.29
73 | SNIVSWVIEDGVRKC | 4.5 ± 0.049
74 | SNLEFNLE | -0.747 ± 0.37
75 | SNLFCLNTSLVQAVMMACPI | 0.113 ± 1.1

Row | Substance | amyloid nucleation score
76 | SNNNAIVNRSRIIRHFMNYC | -0.604 ± 0.56
77 | SNQCTWNDYSG | -0.565 ± 0.64
78 | SNQMWLMVCRVE | 0.112 ± 0.19
79 | SNRWPGTFLASETNVLLE | -0.224 ± 0.32
80 | SNSGMTVKCNYVYSFVTGKS | 0.816 ± 0.21
81 | SNSMLASIVNHPSVSVMFFV | 6.035 ± 0.047
82 | SNVQGLACETTGMARGMWSE | 0.597 ± 0.17
83 | SNYVY | -0.161 ± 1.1
84 | SPHNTARLESAEDQSSMCEP | 1.55 ± 0.23
85 | SPKMF | -0.564 ± 0.46
86 | SPQRFDLGYGVYVCDTPK | -0.231 ± 0.38
87 | SPSEYLLVAYMSHLTENETV | -0.064 ± 0.45
88 | SPSHGVRNP | 1.51 ± 0.34
89 | SPTRFFQLFQADGNSNRGDV | -0.519 ± 1
90 | SPVLIAYQGMAKDWGLVING | 0.139 ± 0.56
91 | SQFSPNDLLLGSWKSDCPWR | -0.917 ± 0.54
92 | SQITYVFYFRRGFIMLMWWE | -0.323 ± 0.79
93 | SQLFTVLSKS | -0.062 ± 0.35
94 | SQWDKTVT | -0.986 ± 0.55
95 | SRCGIWPWLRHDKVD | 0.853 ± 0.18
96 | SRCMILFFRFIVSRYEVKSL | 1.77 ± 0.12
97 | SREIWRLYDI | -0.124 ± 0.8
98 | SREYLSRFVTFYLMYFYAKS | -0.516 ± 0.64
99 | SRHGMSLASR | -0.024 ± 0.46
100 | SRHYYRFHTFAVVGWLSLYW | -0.849 ± 1.1

Row | Substance | amyloid nucleation score
101 | SRKGVTLLVLNNSLTHRSCN | 3.72 ± 0.049
102 | SRKKVMHYDFLVSGVVTHRW | inactive
103 | SRLSLIFDSIYLCS | 2.97 ± 0.15
104 | SRLVFS | inactive
105 | SRMVDR | 0.345 ± 0.45
106 | SRNNCRCD | -1.17 ± 1.1
107 | SRPWNYCRDLWTSVHTGLLS | 0.547 ± 0.36
108 | SRQVTSCVVRRSQCIWSG | 1.2 ± 0.27
109 | SRRFFVCL | inactive
110 | SRSFASPRYELMLATRTHEK | 0.966 ± 0.57
111 | SRSGCHYCAVYTQIVLPRAP | 8.711 ± 0.081
112 | SRSLWYVLNYYV | 0.062 ± 0.29
113 | SRSQPVICWNTWFVTWYESS | 8.914 ± 0.075
114 | SRSSGTDFMYFDRFLPTRWA | -0.805 ± 1.1
115 | SRSVNCAVFNADSLCPKLWL | 4.81 ± 0.11
116 | SRWIGSECNPNCNLSVSYIL | 4.87 ± 0.057
117 | SSCISHGGRK | -0.546 ± 0.45
118 | SSCIWLVFKCSWFGF | 4.421 ± 0.029
119 | SSCKARMVFMLGRYGSGRNL | 0.112 ± 0.79
120 | SSDATCGVDGHFRLLITHCG | 5.9 ± 0.075
121 | SSFIQGCQDSDTNFGGTSSC | inactive
122 | SSGGMVKHYPKIQLSSVWVF | 0.238 ± 0.64
123 | SSIGMVDIVKTLMGK | -0.089 ± 0.61
124 | SSIGYVDYAEFEAGFFIYIV | -0.823 ± 0.44
125 | SSLRKRRLVVRNVAKSRMFL | 2.14 ± 0.31

Row | Substance | amyloid nucleation score
126 | SSLWTCGFIELRPRVLSMGS | 0.327 ± 0.57
127 | SSQSHGGRFQIEYFW | -0.059 ± 0.33
128 | SSRSDAIFIAICLNFIKGKM | 1.32 ± 0.33
129 | SSRYSVIVVYMMGAPSLVGQ | inactive
130 | SSSNLG | inactive
131 | SSSRGRVCP | 0.012 ± 0.63
132 | SSTAVSQILH | inactive
133 | SSVSRLR | -0.277 ± 0.74
134 | SSWKCIIYNPQCEVPTGEQE | -0.289 ± 0.49
135 | SSYLPLQSTAIGHHSSRYGL | 1.08 ± 0.34
136 | STATHSWGCFSWNSCFHGRQ | 9.493 ± 0.05
137 | STCFVCFFTYVNSYIVLFT | 5.63 ± 0.082
138 | STELFLS | -0.251 ± 0.28
139 | STEQLLQVHNTHGRPWSRLS | 1.32 ± 0.32
140 | STFDPCLRHPLIMCFYSVCA | 0.014 ± 0.46
141 | STGILRS | inactive
142 | STGRNMKPSLNASFLRLRMF | -0.228 ± 1.1
143 | STICFG | -0.541 ± 1
144 | STLVIVCFYICRHFSTYRVR | -0.832 ± 0.32
145 | STLWVAKGH | -0.064 ± 1.1
146 | STNCFRAFTHYPMYIGCVVM | -0.159 ± 0.8
147 | STNVMLLSFSHMYHSYVLLG | -0.261 ± 0.63
148 | STPLILVRCNSYL | -0.456 ± 0.28
149 | STRSGGLKQSVPLSRPP | -0.325 ± 0.42
150 | STSECLK | inactive

Row | Substance | amyloid nucleation score
151 | STSKDLMYDCL | inactive
152 | STTGYSVWFVA | -1.19 ± 0.62
153 | STTYFDVCMVGFWYNFSTWG | -0.994 ± 1.1
154 | STVEVRGYLDAVMVGVVSNS | 3.8 ± 0.052
155 | STVGEVYVGLALMDVWGMEW | 0.559 ± 0.32
156 | STYNCFTGADRSLL | 0.94 ± 0.67
157 | SVAVPWGFTSYSCVRLGGFN | 3.06 ± 0.14
158 | SVCMRIKFWSPAPDAEHEKA | 6.614 ± 0.056
159 | SVDNGYVFSLVDPREYRFHL | -0.813 ± 0.76
160 | SVDVKPVTQMTGTMVESTGS | 1.17 ± 0.28
161 | SVFFGFWDTHAAAYMHGVFM | inactive
162 | SVHRERWMFYIFVCTLVVRG | 0.056 ± 0.43
163 | SVICELLQDRFTSLHGMYGY | 0.119 ± 0.31
164 | SVIDDHKKVKSGITRSYREK | 0.504 ± 0.15
165 | SVLERPCMS | 0.176 ± 0.76
166 | SVLNGAAGMYWCW | 0.107 ± 0.46
167 | SVLRSNRIVDLSIL | inactive
168 | SVMPMRYLVCVILLGRRSRT | 0.765 ± 0.16
169 | SVRKRKSNNAIPANAPNKI | 0.513 ± 0.35
170 | SVSCIKFIHSLAEYGMSKEN | 0.697 ± 0.16
171 | SVSSKGNLGA | 0.11 ± 0.22
172 | SVTPWTMNNSQYILMAYRVK | 0.283 ± 0.34
